From patent publication US20200095340A1

What follows are binders tested against biotinylated human DLL3 protein expressed as a human IgG1 fusion protein (human) (UniProt Q9NYJ7) (assay: Octet BLI; biotinylated huDLL3-IgG1 fusion on streptavidin tips; single 50 nM; conditioned medium).
Chain of biotinylated human DLL3 protein expressed as a human IgG1 fusion protein (human) (Q9NYJ7 other isoform, or with tags, fused parts or gaps): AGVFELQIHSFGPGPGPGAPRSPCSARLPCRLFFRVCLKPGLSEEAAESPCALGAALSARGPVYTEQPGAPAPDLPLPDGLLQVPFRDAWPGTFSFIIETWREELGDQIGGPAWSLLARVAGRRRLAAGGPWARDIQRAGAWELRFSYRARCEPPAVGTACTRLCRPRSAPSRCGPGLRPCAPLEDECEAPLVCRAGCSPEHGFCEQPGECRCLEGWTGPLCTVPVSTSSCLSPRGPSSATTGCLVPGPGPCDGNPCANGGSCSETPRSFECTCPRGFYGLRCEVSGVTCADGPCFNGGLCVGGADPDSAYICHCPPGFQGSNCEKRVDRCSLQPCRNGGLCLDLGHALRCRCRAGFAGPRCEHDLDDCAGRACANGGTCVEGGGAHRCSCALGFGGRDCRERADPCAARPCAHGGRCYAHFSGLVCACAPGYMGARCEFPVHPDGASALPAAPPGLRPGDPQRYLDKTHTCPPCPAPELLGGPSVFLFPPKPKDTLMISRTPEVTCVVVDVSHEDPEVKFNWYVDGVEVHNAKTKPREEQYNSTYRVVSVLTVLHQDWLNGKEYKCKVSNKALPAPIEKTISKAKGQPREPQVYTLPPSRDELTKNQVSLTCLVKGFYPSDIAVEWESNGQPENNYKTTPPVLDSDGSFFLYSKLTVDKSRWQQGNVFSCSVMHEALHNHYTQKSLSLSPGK

Row | Kd | Binder
1 | 6.8 nM | anti-DLL3 trispecific protein 2D03 (protein, part only; not given: anti-CD3 and anti-albumin domains, part only) chain, part: EVQLVESGGGLVQPGGSLTLSCVASGKTSSINAMGWYRRAPGKQRELVAGISSDGSKVYADSVKGRFTISRDNAKNSVYLQMNSLRAEDTAVYYCYYFRTVSGVSMRYWGQGTLVTVSSGGGGSGGGSGGGGSGGGSHHHHHH
2 | 6.8 nM | anti-DLL3 trispecific protein 1B010 (protein, part only; not given: CD3 fragment and albumin sdAb, part only) chain, part: EVQLVESGGGLVQPGGSLTLSCVASGSTSRINAMGWYRRAPGKQRELVAGISSDGSKVYADSVKGRFTISRDNAKNSVYLQMNSLRAEDTAVYYCYYFRTKSGSSMRYWGQGTLVTVSSGGGGSGGGSGGGGSGGGSHHHHHH
3 | 6.8 nM | anti-DLL3 trispecific protein 1D06 (protein, part only; not given: anti-CD3 fragment and anti-albumin sdAb, part only) chain, part: EVQLVESGGGLVQPGGSLTLSCVASGSTSSINAMGWYRRAPGKQRELVAGISSDNSKVYADSVKGRFTISRDNAKNSVYLQMNSLRAEDTAVYYCYYFRTVHGSSMRYWGQGTLVTVSSGGGGSGGGSGGGGSGGGSHHHHHH
4 | 7 nM | anti-DLL3 trispecific protein 4C010 (protein, part only; not given: CD3 binder and albumin binder, part only) chain, part: EVQLVESGGGLVQPGGSLTLSCAASGSKVSFMSMAWYRQAPGKKRELVAGISADGSTDYIDSVKGRFTISRDNAKNSVYLQMNSLRAEDTAVYYCYAYRWTTRLTYWGQGTLVTVSSGGGGSGGGSGGGGSGGGSHHHHHH
5 | 7 nM | anti-DLL3 trispecific protein 1E02 (protein, part only; not given: anti-CD3 fragment and anti-albumin sdAb, part only) chain, part: EVQLVESGGGLVQPGGSLTLSCVASGQTSSINAMGWYRRAPGKQRELVAGISSDGSQVYADSVKGRFTISRDNAKNSVYLQMNSLRAEDTAVYYCYYFRTKSGSSMRYWGQGTLVTVSSGGGGSGGGSGGGGSGGGSHHHHHH
6 | 7 nM | anti-DLL3 trispecific protein 1A01 (protein, part only; not given: anti-CD3 and anti-albumin domains, part only) chain, part: EVQLVESGGGLVQPGGSLTLSCVASGFTSSINAMGWYRRAPGKQRELVAGISSDGSFVYADSVKGRFTISRDNAKNSVYLQMNSLRAEDTAVYYCYYFRHVSGSSMRYWGQGTLVTVSSGGGGSGGGSGGGGSGGGSHHHHHH
7 | 7.1 nM | anti-DLL3 trispecific protein 4B02 (protein, part only; not given: CD3 binder and albumin binder, part only) chain, part: EVQLVESGGGLVQPGGSLTLSCAASGSRVSFLSMAWYRQAPGKKRELVAGISADGSTTYIDSVKGRFTISRDNAKNSVYLQMNSLRAEDTAVYYCYAYRWTTRFTYWGQGTLVTVSSGGGGSGGGSGGGGSGGGSHHHHHH
8 | 7.1 nM | anti-DLL3 trispecific protein 1C07 (protein, part only; not given: anti-CD3 fragment and anti-albumin sdAb, part only) chain, part: EVQLVESGGGLVQPGGSLTLSCVASGSTSSINAMAWYRRAPGKQRELVAGISSDGSKVYADSVKGRFTISRDNAKNSVYLQMNSLRAEDTAVYYCYYFRTVSGSSMRYWGQGTLVTVSSGGGGSGGGSGGGGSGGGSHHHHHH
9 | 7.1 nM | anti-DLL3 trispecific protein 3F011 (protein, part only; not given: anti-CD3 and anti-albumin domains, part only) chain, part: EVQLVESGGGLVQPGGSLTLSCAASGSSVSFLSMAWYRQAPGKKRELVAGISTDGSTDYIDSVKGRFTISRDNAKNSVYLQMNSLRAEDTAVYYCYAYRWRTRYTYWGQGTLVTVSSGGGGSGGGSGGGGSGGGSHHHHHH
10 | 7.1 nM | anti-DLL3 trispecific protein 1E07 (protein, part only; not given: anti-CD3 fragment and anti-albumin sdAb, part only) chain, part: EVQLVESGGGLVQPGGSLTLSCVASGSTSSINAMAWYRRAPGKQRELVAGISSDGSKVYNDSVKGRFTISRDNAKNSVYLQMNSLRAEDTAVYYCYYFRTVRGSSQRYWGQGTLVTVSSGGGGSGGGSGGGGSGGGSHHHHHH
11 | 7.2 nM | anti-DLL3 trispecific protein 4E08 (protein, part only; not given: anti-CD3 fragment and anti-albumin sdAb, part only) chain, part: EVQLVESGGGLVQPGGSLTLSCAASGSSVKFLSMAWYRQAPGKKRELVAGISTDGSTDYIDSVKGRFTISRDNAKNSVYLQMNSLRAEDTAVYYCYAYKWTTRYTYWGQGTLVTVSSGGGGSGGGSGGGGSGGGSHHHHHH
12 | 7.2 nM | anti-DLL3 trispecific protein 3B05 (protein, part only; not given: anti-CD3 and anti-albumin domains, part only) chain, part: EVQLVESGGGLVQPGGSLTLSCVASGSSVKFLSMAWYRQAPGKKRELVAGISADGSTTYIDSVKGRFTISRDNAKNSVYLQMNSLRAEDTAVYYCYAYRWTTRRTYWGQGTLVTVSSGGGGSGGGSGGGGSGGGSHHHHHH
13 | 7.3 nM | anti-DLL3 trispecific protein 2B012 (protein, part only; not given: anti-CD3 and anti-albumin domains, part only) chain, part: EVQLVESGGGLVQPGGSLTLSCVASGTTSSINAMGWYRRAPGKQRELVAGISSDGSKVYNDSVKGRFTISRDNAKNSVYLQMNSLRAEDTAVYYCYYFRTVRGSSMRYWGQGTLVTVSSGGGGSGGGSGGGGSGGGSHHHHHH
14 | 7.3 nM | anti-DLL3 trispecific protein 3G09 (protein, part only; not given: CD3 fragment and albumin sdAb, part only) chain, part: EVQLVESGGGLVQPGGSLTLSCAASGSSVSVLSMAWYRQAPGKKRELVAGISADGSTDYIGSVKGRFTISRDNAKNSVYLQMNSLRAEDTAVYYCYAYRWTTRTTYWGQGTLVTVSSGGGGSGGGSGGGGSGGGSHHHHHH
15 | 7.3 nM | anti-DLL3 trispecific protein 3B07 (protein, part only; not given: anti-CD3 fragment and anti-albumin sdAb, part only) chain, part: EVQLVESGGGLVQPGGSLTLSCAASGSRVSFLSMAWYRQAPGKKRELVAGISADGSTTYIDSVKGRFTISRDNAKNSVYLQMNSLRAEDTAVYYCYAYRWTTRYTYWGQGTLVTVSSGGGGSGGGSGGGGSGGGSHHHHHH
16 | 7.3 nM | anti-DLL3 trispecific protein 2D010 (protein, part only; not given: CD3 binder and albumin binder, part only) chain, part: EVQLVESGGGLVQPGGSLTLSCVASGSTSSINAMGWYRRAPGKQRELVAGISSDGSKVYADSVKGRFTISRDNAKNSVYLQMNSLRAEDTAVYYCYYFRTKSGSSMRYWGQGTLVTVSSGGGGSGGGSGGGGSGGGSHHHHHH

Row | Kd | Binder
17 | 7.4 nM | anti-DLL3 trispecific protein 2B05 (protein, part only; not given: anti-CD3 fragment and anti-albumin domain, part only) chain, part: EVQLVESGGGLVQPGGSLTLSCVASGTTSSINAMGWYRRAPGKQRELVAGISSDGTKVYADSVKGRFTISRDNAKNSVYLQMNSLRAEDTAVYYCYYFHTVSGSSMRYWGQGTLVTVSSGGGGSGGGSGGGGSGGGSHHHHHH
18 | 7.5 nM | anti-DLL3 trispecific protein 4D06 (protein, part only; not given: anti-CD3 fragment and anti-albumin sdAb, part only) chain, part: EVQLVESGGGLVQPGGSLTLSCAASGSSVKFLSMAWYRQAPGKKRELVAGISPDGSTDYIDSVKGRFTISRDNAKNSVYLQMNSLRAEDTAVYYCYAYRWTTRYRYWGQGTLVTVSSGGGGSGGGSGGGGSGGGSHHHHHH
19 | 7.5 nM | anti-DLL3 trispecific protein 4G011 (protein, part only; not given: anti-CD3 fragment and anti-albumin sdAb, part only) chain, part: EVQLVESGGGLVQPGGSLTLSCAASGSSVRFLSMAWYRQAPGKKRELVAGISADGSTDYIGSVKGRFTISRDNAKNSVYLQMNSLRAEDTAVYYCYAYRWSTRYTYWGQGTLVTVSSGGGGSGGGSGGGGSGGGSHHHHHH
20 | 7.5 nM | anti-DLL3 trispecific protein 4C07 (protein, part only; not given: anti-CD3 and anti-albumin domains, part only) chain, part: EVQLVESGGGLVQPGGSLTLSCAASGSKVSFLSMAWYRQAPGKKRELVAGISADGSKDYIDSVKGRFTISRDNAKNSVYLQMNSLRAEDTAVYYCYAYRWTTRLTYWGQGTLVTVSSGGGGSGGGSGGGGSGGGSHHHHHH
21 | 7.5 nM | anti-DLL3 trispecific protein 3F05 (protein, part only; not given: CD3 binder and albumin binder, part only) chain, part: EVQLVESGGGLVQPGGSLTLSCAASGSKVSFLSMAWYRQAPGKKRELVAGISTDGSTDYIDSVKGRFTISRDNAKNSVYLQMNSLRAEDTAVYYCYAYRWTTRRTYWGQGTLVTVSSGGGGSGGGSGGGGSGGGSHHHHHH
22 | 7.6 nM | anti-DLL3 trispecific protein 2C010 (protein, part only; not given: CD3 binder and albumin binder, part only) chain, part: EVQLVESGGGLVQPGGSLTLSCVASGSTSKINAMGWYRRAPGKQRELVAGISSDRSKVYADSVKGRFTISRDNAKNSVYLQMNSLRAEDTAVYYCYYFRTVAGSSMRYWGQGTLVTVSSGGGGSGGGSGGGGSGGGSHHHHHH
23 | 7.6 nM | anti-DLL3 trispecific protein 2B03 (protein, part only; not given: CD3 fragment and albumin sdAb, part only) chain, part: EVQLVESGGGLVQPGGSLTLSCVASGSTSSINAMGWYRRAPGKQRELVAGISSDGSLVYADSVKGRFTISRDNAKNSVYLQMNSLRAEDTAVYYCYYFTTVSGSSMRYWGQGTLVTVSSGGGGSGGGSGGGGSGGGSHHHHHH
24 | 7.6 nM | anti-DLL3 trispecific protein 4G08 (protein, part only; not given: anti-CD3 fragment and anti-albumin sdAb, part only) chain, part: EVQLVESGGGLVQPGGSLTLSCAASGSSVRFLSMAWYRQAPGKKRELVAGISTDGSTDYIDSVKGRFTISRDNAKNSVYLQMNSLRAEDTAVYYCYAYRWTTRYRYWGQGTLVTVSSGGGGSGGGSGGGGSGGGSHHHHHH
25 | 7.6 nM | anti-DLL3 trispecific protein 1C011 (protein, part only; not given: anti-CD3 fragment and anti-albumin domain, part only) chain, part: EVQLVESGGGLVQPGGSLTLSCVASGTTSSINAMGWYRRAPGKQRELVAGISSDGSKVYEDSVKGRFTISRDNAKNSVYLQMNSLRAEDTAVYYCYYFRTVSGSSMRYWGQGTLVTVSSGGGGSGGGSGGGGSGGGSHHHHHH
26 | 7.7 nM | anti-DLL3 trispecific protein 2A08 (protein, part only; not given: anti-CD3 and anti-albumin domains, part only) chain, part: EVQLVESGGGLVQPGGSLTLSCVASGSTKSINAMGWYRRAPGKQRELVAGISSDGSKVYRDSVKGRFTISRDNAKNSVYLQMNSLRAEDTAVYYCYYFRTSSGSSMRYWGQGTLVTVSSGGGGSGGGSGGGGSGGGSHHHHHH
27 | 7.8 nM | anti-DLL3 trispecific protein 1A04 (protein, part only; not given: anti-CD3 fragment and anti-albumin sdAb, part only) chain, part: EVQLVESGGGLVQPGGSLTLSCVASGSTSSINAMGWYRRAPGKQRELVAGISSDGSKVYEDSVKGRFTISRDNAKNSVYLQMNSLRAEDTAVYYCYYFRTVSGSSMRYWGQGTLVTVSSGGGGSGGGSGGGGSGGGSHHHHHH
28 | 7.8 nM | anti-DLL3 trispecific protein 3C09 (protein, part only; not given: anti-CD3 and anti-albumin domains, part only) chain, part: EVQLVESGGGLVQPGGSLTLSCAASGSSVSFLSMAWYRQAPGKKRELVAGISADGSTIYIDSVKGRFTISRDNAKNSVYLQMNSLRAEDTAVYYCYAYRWRTRYTYWGQGTLVTVSSGGGGSGGGSGGGGSGGGSHHHHHH
29 | 7.9 nM | anti-DLL3 trispecific protein 2H06 (protein, part only; not given: anti-CD3 fragment and anti-albumin domain, part only) chain, part: EVQLVESGGGLVQPGGSLTLSCVASGSTSTINAMGWYRRAPGKQRELVAGISSDGSKVYADSVKGRFTISRDNAKNSVYLQMNSLRAEDTAVYYCYYFRTASGSSMRYWGQGTLVTVSSGGGGSGGGSGGGGSGGGSHHHHHH
30 | 8 nM | anti-DLL3 trispecific protein 2G09 (protein, part only; not given: CD3 fragment and albumin sdAb, part only) chain, part: EVQLVESGGGLVQPGGSLTLSCVASGSTSSINAMGWYRRAPGKQRELVAGVSSDGSKVYADSVKGRFTISRDNAKNSVYLQMNSLRAEDTAVYYCYYFRTVSGSSARYWGQGTLVTVSSGGGGSGGGSGGGGSGGGSHHHHHH
31 | 8 nM | anti-DLL3 trispecific protein 2F07 (protein, part only; not given: anti-CD3 fragment and anti-albumin domain, part only) chain, part: EVQLVESGGGLVQPGGSLTLSCVASGSTSSINAVGWYRRAPGKQRELVAGISSDGSSVYADSVKGRFTISRDNAKNSVYLQMNSLRAEDTAVYYCYYFRTVSTSSMRYWGQGTLVTVSSGGGGSGGGSGGGGSGGGSHHHHHH
